From patent US20260266825A1 come the findings set out here.

The assay deals with PRO-C17 monoclonal antibody. In words: competitive ELISA; standard peptide competes with plate-bound biotinylated … for the HRP-labelled mAb.

On to QGMAPAAGADLDKIGLHSDSQEELWMFVRK [30 amino acid standard peptide (…)], for which the IC50 – broadly, the concentration that inhibits the measured activity by half – came to 2.1 ng/mL; the Mean IC25 stood at 0.8 ng/mL; the Mean IC75 turned out to be 5.5 ng/mL.
